{
  "source": "the supplement of paper PMC9170038",
  "data": [
    {"tested_on": "MS2 coat protein", "assay": "apparent KD of MS2 coat protein; higher = weaker reporter binding", "settings": "Eterna round: R107; input ligand: theophylline 2 mM", "how_it_was_run": "(§1)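 Designed RNA switches were transcribed on-chip from Illumina sequencing clusters. SNAP-549-labelled MS2 coat protein was titrated onto them in twofold steps from 0.7 or 1.5 nM to 3 µM in 100 mM Tris-HCl pH 7.5, 80 mM KCl, 4 mM MgCl2, either without or with constant ligand. Apparent KD reflects the per-design median of normalised cluster binding-curve fits.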", "units": {"apparent KD of MS2 coat protein": "nM"}, "values": [
      {"sequence": "UGACAUUGCUCAGAUACCAGACGUGAGGAUCACCCACGUGCCAACAAGUACAUAAUAAAUGUCCCUUGGCAGCUGAGCAAUGUCU [TheoBX 17 #MS2Left #Theo2 #AlternativeMS2]", "apparent KD of MS2 coat protein": 15.1},
      {"sequence": "GGUCUCUGGAGCGAUACCAGCUUGAUCGUACUAGCCAGGUACAUGAGGAUCACCCAUGUAAGCCCUUGGCAGCGCUCCAGAGACC [#1 Exclusion - Theophylline B Attempt #9 (HarryS)]", "apparent KD of MS2 coat protein": 22.3},
      {"sequence": "GUACAUGAGGAUCACCCAUGUAUAGUUGAAGGAGCGACCAGAGGGUCAGGUAGGUCGCAGCACAUGGUGAAAACCCGUGUAUGCC [#1 Exclusion - Arginine A Attempt #21 (Inspired by Pi)]", "apparent KD of MS2 coat protein": 49.1},
      {"sequence": "GAGGAAACUCACAUGAGGAUCACCCAUGUACGAGGACCGGUACGGCCGCCACUCGAAACCAUGGGCGGUAGUACAUGGAAACAUG [Design 2 MOD]", "apparent KD of MS2 coat protein": 75.5},
      {"sequence": "UGUCGAAACUGAAGGAGCGAGAUGACAAACAUGAGGAUCACCCAUGUUAUGGGUUGUUAAUCUCAGGUAGGUCGCAGUGACAAAA [Same State Arginine B GF 16]", "apparent KD of MS2 coat protein": 150},
      {"sequence": "UUAACGAGCUGAAGGAGCGCUCUUCAUCAACAUGAGGAUCACCCAUGUACACAUAAUAGGGAGCAGGUAGGUCGCAGCGGGAUGG [#24 Same State - Arginine B]", "apparent KD of MS2 coat protein": 17.4},
      {"sequence": "GGAUAGGACACGGCCGCCACUAUCUAGGAUACUAGCAACAUUUGGGUACUUGAGGAUCACCCAAGUAGGACCGGGUGUCCUAUCG", "apparent KD of MS2 coat protein": 253},
      {"sequence": "CUCCCUUCGGCGGCCGCCACUAACAGUUUAAUGGACUUUCGGGUCCACAUGAGGAUCACCCAUGUUAGGACCGGGCCCUUGCUCU [theeternabot_exclusion_MS2_Trp_B_39]", "apparent KD of MS2 coat protein": 10.6},
      {"sequence": "AAGUGGCACGGAAGGAGCGAGUUUACCUAAAUAACAUGAGGAUCACCCAUGUAUAAUGGGACUCAGGUAGGUCGCCGUUGUCACU [Same State Arginine B GF 23]", "apparent KD of MS2 coat protein": 28.8}
    ]},
    {"tested_on": "MS2 coat protein", "assay": "apparent KD of MS2 coat protein; higher = weaker reporter binding", "settings": "Eterna round: R107; input ligand: tryptophan 2.4 mM", "how_it_was_run": "as §1", "units": {"apparent KD of MS2 coat protein": "nM"}, "values": [
      {"sequence": "AGCACUGUGACGGCCGCCACUACAUAAUAGGGUGGUCAGGUUCAUAUACAUGAGGAUCACCCAUGUAGGACCGGGUCUCAGUGCA [Omei Trp Exc B A v6]", "apparent KD of MS2 coat protein": 9.03},
      {"sequence": "AAAACACAUGAGGAUCACCCAUGUCGUGAUACCAGUCAACAUGAGGACCCUUGGCAGCAUAAAAUGGGUAACAUGAGGAUCACCC [AstrosEXyTheA#5]", "apparent KD of MS2 coat protein": 90.9},
      {"sequence": "UCGUAGGUAGGAAGGAGCGCAUACUUCACAUGAGGAUCACCCAUGUCGAGACGUGAGUCAGUGCAGGUAGGUCGCCUAGCUAUGA [Same State - Arginine B (Freestyle 25)]", "apparent KD of MS2 coat protein": 18.7},
      {"sequence": "AACAGGGCUUCCACGAAGCCCUAAGGUGAUACCAGCACAUGUAAGUGCCCUUGGCAGCACGGUACAUGAGGAUCACCCAUGUAGA [Gerara]", "apparent KD of MS2 coat protein": 24.3},
      {"sequence": "AGCGAUUUCGGAAGGAGCGGUACAUGAGGAUCACCCAUGUAUUCAAUCGUGAUCGGCGCGUGCCAGGUAGGUCGCCGAAGGCGUC [Veatat]", "apparent KD of MS2 coat protein": 11.9},
      {"sequence": "UGUAUGUGAUCUGAUACCAGUCCAACUGGUAAAAUCUGAGGAUCACCCAGGUAAAAUUGGGACCCUUGGCAGCAGAUCGCAUACU", "apparent KD of MS2 coat protein": 235},
      {"sequence": "GGUACAUGAGGAUCACCCAUGUGUCAUGAUACCAGACAUGAAAAUGUCCCUUGGCAGCAUGCCUGAUGGCCGCGUUUAGCGGCCG [Liskovec]", "apparent KD of MS2 coat protein": 16.2},
      {"sequence": "CCUCGACAUGAGGAUCACCCAUGUAGAGAUACCAGCCUGUGAGAUGGCCCUUGGCAGCUCAUAUAGGGUACAGGAGUCGUUUUGA [Qugetila]", "apparent KD of MS2 coat protein": 23.9},
      {"sequence": "UGUAUGUGAUCUGAUACCAGUCCCUUGGCAGCAACAUGAGGAUCACCCAUGUAGAUACCAGACCCUUGGCAGCAGAUCGCAUACU [#DoubleAptamer 1]", "apparent KD of MS2 coat protein": 8.2},
      {"sequence": "UGUACCAUGUCGGCCGCCACUCAUGAUAAACCUGAGGAUCACCCUGGUAGCGUCAAAGACGCUAUGAGGACCGGGACAUGGUACU [TryBS Zipper 2]", "apparent KD of MS2 coat protein": 20.5},
      {"sequence": "AAUCUGUCGGGUGAUACCAGCCUCGGCGCAUCUCACGCUGAACAUGAGGAUCACCCAUGUGGCCCUUGGCAGCACAUGACAAAUC [Tivece]", "apparent KD of MS2 coat protein": 620},
      {"sequence": "AAACAUUGCUCAGAUACCAGACAUGAGGAUCACCCAUGUACCAAGGUAAAGAAAUAACGUGUCCCUUGGCAGCUGAGCAAUGAAA [MAT - Exclusion Theophlline B - Mod of Eli - D10]", "apparent KD of MS2 coat protein": 10.9},
      {"sequence": "GGAUAGGACAGAAGGAGCGACAUGAGGAUCACCCAUGUCUACUACGUCGAAAGACGCUCAUGUCAGGUAGGUCGCUGUCCUAUCG [#28 Exclusion - Arginine B]", "apparent KD of MS2 coat protein": 250},
      {"sequence": "CACGCGGUGUCGGCCGCCACUGACGCCCGUGGGUCUCCUGACAUGAGGAUCACCCAUGUACAGCGCAGGACCGGGACACCAACAA [Are]", "apparent KD of MS2 coat protein": 29.3},
      {"sequence": "AUUAAAGUUUAUAAGGAAAUUGAAACAGAAGGAGCGUGAGUAAUCACAGGUAGGUCGCUGGUAGUACAUGAGGAUCACCCAUGUU [JR_Nu_SSArginiA_Sub020]", "apparent KD of MS2 coat protein": 21.3},
      {"sequence": "AUAACUGUAAUAAACCGCAGGCUAGUGGAAGGAGCGCGGAAUAACGCAGGUAGGUCGCCACAAACAUGAGGAUCACCCAUGUGGC [SSAA NP+V+V2 #6]", "apparent KD of MS2 coat protein": 19.6},
      {"sequence": "ACUGGAGGUGGAAGGAGCGGGAGACAUGAGCAUCACAUGAGGAUCACCCAUGUAGGAUCAUCCCAGGUAGGUCGCCAUGUCGAAA [rtfemullin]", "apparent KD of MS2 coat protein": 189},
      {"sequence": "UCGUAGGUAGGAAGGAGCGCAUACUUCACAUGAGGAUCACCCAUGUCGAGACGUGAGUCAGUGCAGGUAGGUCGCCUAGUUAUGA [Same State - Arginine B (Freestyle 24)]", "apparent KD of MS2 coat protein": 29.2},
      {"sequence": "AAAAGAGGUGGAAGGAGCGGGAGACAUGAGGAUCACCCAUGUGAUAUGACAAGAGGAUCAGCCCAGGUAGGUCGCCAUGUCGAAA [pbbbmullin]", "apparent KD of MS2 coat protein": 50},
      {"sequence": "UGACAUUGCUCAGAUACCAGACGUGAGGAUCACCCACGUGCCAACAAGUACAUAAUAAAUGUCCCUUGGCAGCUGAGCAAUGUCU [TheoBX 17 #MS2Left #Theo2 #AlternativeMS2]", "apparent KD of MS2 coat protein": 10.9},
      {"sequence": "CGAUACAAAUAAAGCGUUCGUCCGCCAGAUACCAGAUUCAUUUCCAUCCCUUGGCAGCUGUCGACAUGAGGAUCACCCAUGUUUG [theeternabot_exclusion_MS2_Theo_A_41]", "apparent KD of MS2 coat protein": 19.9},
      {"sequence": "GGUCUCUGGAGCGAUACCAGCUUGAUCGUACUAGCCAGGUACAUGAGGAUCACCCAUGUAAGCCCUUGGCAGCGCUCCAGAGACC [#1 Exclusion - Theophylline B Attempt #9 (HarryS)]", "apparent KD of MS2 coat protein": 10.5},
      {"sequence": "AGACAUGAGGAUCACCCAUGUAGCAUGGAUACCAGAUCCAGAUUUAUCCCUUGGCAGCUGUGGUACAGUGAUGGAUUGCUCCUAG [Exclusion - Theophylline A (Freestyle 8)]", "apparent KD of MS2 coat protein": 61.9},
      {"sequence": "GUACAUGAGGAUCACCCAUGUAUAGUUGAAGGAGCGACCAGAGGGUCAGGUAGGUCGCAGCACAUGGUGAAAACCCGUGUAUGCC [#1 Exclusion - Arginine A Attempt #21 (Inspired by Pi)]", "apparent KD of MS2 coat protein": 27.6},
      {"sequence": "UGUCGAAACUGAAGGAGCGAGAUGACAAACAUGAGGAUCACCCAUGUUAUGGGUUGUUAAUCUCAGGUAGGUCGCAGUGACAAAA [Same State Arginine B GF 16]", "apparent KD of MS2 coat protein": 103},
      {"sequence": "UUAACGAGCUGAAGGAGCGCUCUUCAUCAACAUGAGGAUCACCCAUGUACACAUAAUAGGGAGCAGGUAGGUCGCAGCGGGAUGG [#24 Same State - Arginine B]", "apparent KD of MS2 coat protein": 17.2},
      {"sequence": "GGAUAGGACACGGCCGCCACUAUCUAGGAUACUAGCAACAUUUGGGUACUUGAGGAUCACCCAAGUAGGACCGGGUGUCCUAUCG", "apparent KD of MS2 coat protein": 307},
      {"sequence": "CUCCCUUCGGCGGCCGCCACUAACAGUUUAAUGGACUUUCGGGUCCACAUGAGGAUCACCCAUGUUAGGACCGGGCCCUUGCUCU [theeternabot_exclusion_MS2_Trp_B_39]", "apparent KD of MS2 coat protein": 10.9},
      {"sequence": "AAGUGGCACGGAAGGAGCGAGUUUACCUAAAUAACAUGAGGAUCACCCAUGUAUAAUGGGACUCAGGUAGGUCGCCGUUGUCACU [Same State Arginine B GF 23]", "apparent KD of MS2 coat protein": 33},
      {"sequence": "ACACGAGGAUCACCCGUGUCAUGUGGUGAUACCAGUUUACAUGAGAACCCUUGGCAGCAUAACAACAUGAGGAUCACCCAUGUCA [Same State - Theophylline A #1]", "apparent KD of MS2 coat protein": 35}
    ]}
  ]
}
